In article PMC8626073:

Biological target: T1, NlFMD-F (female-specific isoform, SR-rich protein) (Nilaparvata lugens, UniProt A0A974LNP1 1-613)
T1 sequence: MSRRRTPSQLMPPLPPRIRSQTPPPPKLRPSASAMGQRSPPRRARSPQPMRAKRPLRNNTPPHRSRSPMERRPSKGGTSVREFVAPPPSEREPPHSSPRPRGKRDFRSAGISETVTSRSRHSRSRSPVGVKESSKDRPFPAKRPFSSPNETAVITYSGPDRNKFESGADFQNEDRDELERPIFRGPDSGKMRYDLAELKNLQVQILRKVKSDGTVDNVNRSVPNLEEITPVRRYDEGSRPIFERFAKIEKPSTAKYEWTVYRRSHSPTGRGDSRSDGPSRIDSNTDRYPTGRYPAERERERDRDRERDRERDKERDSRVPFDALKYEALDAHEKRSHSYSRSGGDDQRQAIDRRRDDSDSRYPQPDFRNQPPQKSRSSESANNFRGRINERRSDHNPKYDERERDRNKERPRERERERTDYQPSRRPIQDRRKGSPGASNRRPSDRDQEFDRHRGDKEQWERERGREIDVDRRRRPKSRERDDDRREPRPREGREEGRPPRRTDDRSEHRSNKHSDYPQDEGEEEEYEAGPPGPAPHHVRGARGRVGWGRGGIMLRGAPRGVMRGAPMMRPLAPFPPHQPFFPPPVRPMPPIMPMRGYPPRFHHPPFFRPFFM
Assay: MST

Binder: GAAGAAGAA (ssRNA) [GAAGAAGAA repeat (RAAGAA motif)]
- binding result: no binding
